Key:
[1] = biological target: T1, RSV fusion (F) protein, affinity purified from HEp-2 cells infected with the Long strain of RSV (respiratory syncytial virus, Long …, UniProt P12568 26-109; P12568 137-574); experiment: plasmon resonance on an IASYS machine, antibody bound covalently, F-protein in solution
T1 construct: mature; also called RSV F-protein; soluble F-protein

[2] = biological target: T1, RSV fusion (F) protein, affinity …; experiment: ELISA, plate coated with purified F-protein, GAH IgG-HRP detection
[3] = biological target: F-protein of RSV RS Long (Type A prototype) in infected VERO cells (respiratory syncytial virus, Long …, UniProt P12568 26-574); experiment: cell-based or functional assay
Sequence of F-protein of RSV RS Long (Type A prototype) in infected VERO cells (P12568 26-574): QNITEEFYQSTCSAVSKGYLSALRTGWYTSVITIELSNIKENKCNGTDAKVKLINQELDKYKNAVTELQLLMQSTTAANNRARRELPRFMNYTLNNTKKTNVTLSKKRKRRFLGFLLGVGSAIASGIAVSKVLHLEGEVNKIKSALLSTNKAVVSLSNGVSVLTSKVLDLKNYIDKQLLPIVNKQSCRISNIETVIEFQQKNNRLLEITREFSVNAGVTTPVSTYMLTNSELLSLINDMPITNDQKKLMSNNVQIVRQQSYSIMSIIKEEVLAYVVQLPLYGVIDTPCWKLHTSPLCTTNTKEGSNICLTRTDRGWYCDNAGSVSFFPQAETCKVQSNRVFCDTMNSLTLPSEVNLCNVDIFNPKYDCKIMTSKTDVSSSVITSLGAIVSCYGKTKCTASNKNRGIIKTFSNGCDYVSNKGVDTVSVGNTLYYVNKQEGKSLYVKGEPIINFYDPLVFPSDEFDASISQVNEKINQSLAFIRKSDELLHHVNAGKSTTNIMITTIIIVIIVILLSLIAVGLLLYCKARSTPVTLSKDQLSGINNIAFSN

[4] = biological target: F-protein of RSV MR 144 (Type A) (respiratory syncytial virus, MR 144 …); experiment: cell-based or functional assay
[5] = biological target: F-protein of RSV 18537 (Type B) (respiratory syncytial virus, strain …, UniProt P13843 26-574); experiment: cell-based or functional assay
Sequence of F-protein of RSV 18537 (Type B) (P13843 26-574): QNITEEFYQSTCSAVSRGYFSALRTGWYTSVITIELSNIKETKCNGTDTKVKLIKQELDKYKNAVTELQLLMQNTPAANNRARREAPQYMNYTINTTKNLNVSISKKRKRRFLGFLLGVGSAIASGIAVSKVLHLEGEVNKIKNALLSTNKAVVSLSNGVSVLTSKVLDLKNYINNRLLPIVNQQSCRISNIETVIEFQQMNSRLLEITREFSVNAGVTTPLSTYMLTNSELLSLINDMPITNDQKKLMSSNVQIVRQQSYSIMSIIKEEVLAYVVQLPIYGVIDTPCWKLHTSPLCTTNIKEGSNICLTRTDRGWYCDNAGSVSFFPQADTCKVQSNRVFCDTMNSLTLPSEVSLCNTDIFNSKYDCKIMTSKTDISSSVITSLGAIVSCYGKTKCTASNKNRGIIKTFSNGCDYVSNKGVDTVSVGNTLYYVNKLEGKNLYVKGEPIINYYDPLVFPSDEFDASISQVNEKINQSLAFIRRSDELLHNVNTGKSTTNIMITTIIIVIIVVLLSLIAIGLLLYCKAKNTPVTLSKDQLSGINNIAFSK

[6] = biological target: F-protein of RSV RS 6556 (Type B clinical isolate) in infected VERO cells (respiratory syncytial virus, RS 6556 …); experiment: cell-based or functional assay
[7] = biological target: T1, RSV fusion (F) protein, affinity …; experiment: titration micro calorimetry, RF-2 and F-protein in solution

T1 sequence (P12568 26-109, chain 1 of 2): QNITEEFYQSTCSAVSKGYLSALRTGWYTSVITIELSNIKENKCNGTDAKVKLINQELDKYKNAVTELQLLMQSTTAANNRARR
T1 sequence (P12568 137-574, chain 2 of 2): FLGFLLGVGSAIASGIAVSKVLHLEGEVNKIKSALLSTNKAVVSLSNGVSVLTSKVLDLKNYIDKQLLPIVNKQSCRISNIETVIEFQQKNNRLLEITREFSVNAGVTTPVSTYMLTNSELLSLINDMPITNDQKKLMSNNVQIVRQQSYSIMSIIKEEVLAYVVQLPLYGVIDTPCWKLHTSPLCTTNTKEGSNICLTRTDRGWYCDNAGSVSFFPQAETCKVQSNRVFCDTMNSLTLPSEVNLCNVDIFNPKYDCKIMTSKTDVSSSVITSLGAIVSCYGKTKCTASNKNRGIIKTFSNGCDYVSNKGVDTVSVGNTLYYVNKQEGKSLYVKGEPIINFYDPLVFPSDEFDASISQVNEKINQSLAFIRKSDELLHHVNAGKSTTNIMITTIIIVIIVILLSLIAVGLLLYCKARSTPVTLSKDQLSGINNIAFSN

B1: RF-1 human monoclonal antibody to RSV F-protein (antibody, human IgG1, V domains shown)
VH: QVQLQESGPVVVKPTETLTLTCTVSGFSLSNPRMGVTWIRQPPGKALEWLGNIFSSDEKSFSPSLKSRLTTSQDTSRSQVVLSLTNVDPVDTATYYCARVGLYDINAYYLYYLDYWGQGTLVTVSS
VL: DIQMTQSPSSLSASVGDRVTITCRAGQRIASYLNWYQHKPGKAPKLLIYAGSNLHRGVPSRFSGGGSGTDFTLTINSLQPEDFATYYCQQAYSTPWTFGPGTKVEIK
notes: Tested as natural human IgG1 kappa, protein A purified from supernatant of the EBV-positive tumor cell line from hu-SPL-SCID mouse #6
- Kd [1]: ~0.1 nM
- EC50 [2]: 0.6 ng/mL
- Fusion Inhibition activity ED50 titer [3]: 660 ng/mL
- Infection Neutralization Activity ED50 titer [4]: 30 ng/mL
- Infection Neutralization Activity ED50 titer [5]: 30 ng/mL
- Fusion Inhibition activity ED50 titer [6]: 40 ng/mL

B2: RF-2 human monoclonal antibody to RSV F-protein (antibody, human IgG1, V domains shown)
VH: QVQLQESGPALVKPTQTLTLTCTFSGFSLSTRGMSVNWIRQPPGKALEWLARIDWDDDTFYSASLKTRLSISKDTSKNQVVLRMTNVDPVDTATYFCARASLYDSDSFYLFYHAYWGQGTVVTVSS
VL: DIQMTQSPSSLSASVGDRVTITCRASQSIASYVNWYQQKPGKAPKVLIFASANLVSGVPSRFSGSGSGTVFTLTISNLQPEDFATYFCQQSYTNFSFGQGTKLEIK
notes: Tested as natural human IgG1 kappa, protein A purified from supernatant of the tumor cell line from hu-SPL-SCID mouse #15; The early preparation held at least two antibody populations
- EC50 [2]: 1 ng/mL
- Fusion Inhibition activity ED50 titer [3]: 3300 ng/mL
- Infection Neutralization Activity ED50 titer [4]: 8 ng/mL
- Infection Neutralization Activity ED50 titer [5]: 12 ng/mL
- Fusion Inhibition activity ED50 titer [6]: 400 ng/mL
- Kd [7]: 2 nM

Source: patent US20070082002A1 (IDEC PHARMACEUTICALS, published 2007)
